The record followed here is PMC4740771, “Nucleotide-dependent assembly of the peroxisomal receptor export complex” (Scientific Reports, 2016).

Series [1] deals with the molecule itself. Briefly: SEC; as a1 but isolated and run in the presence of 5 mM ADP instead of ATP. (Size exclusion chromatography separates by hydrodynamic size, large species first.)
Series [2] concerns the target T1, Pex1/6pWB complex (wild-type Pex1p with Pex6p E832Q) (S. cerevisiae, UniProt P24004 1-1043; P33760 1-1030, E832Q).
T1 construct: Pex1p of yeast, as the chain of m3; Pex6p of yeast with the Walker B mutation of the D2 domain; also called Pex1p/Pex6pWB; Pex6WB mutant complex; not shown: His6, N-terminal, kept; GST, C-terminal, cleaved; copies: 3 + 3
The series is described as follows: pull-down; GST-Pex15p(1-315)His incubated with purified proteins, loaded on GSH-agarose, eluted with glutathione; 5 mM ATP; Coomassie and immunoblot, signal intensities of load and eluate. The settings on record: both partners purified. In general terms: A western blot detects proteins with antibodies after separation by electrophoresis.

The target of a further series is T2, HisPex6p (S. cerevisiae, UniProt P33760 1-1030).
T2 construct: Pex6p, type II AAA-ATPase peroxin of yeast; also called single Pex6p; isolated Pex6p; source: E. coli Tuner (DE3), purified (NiNTA-agarose; with HisPex1pGST also GSH-agarose and size exclusion); not shown: His6, N-terminal, kept
T2 sequence (looked up): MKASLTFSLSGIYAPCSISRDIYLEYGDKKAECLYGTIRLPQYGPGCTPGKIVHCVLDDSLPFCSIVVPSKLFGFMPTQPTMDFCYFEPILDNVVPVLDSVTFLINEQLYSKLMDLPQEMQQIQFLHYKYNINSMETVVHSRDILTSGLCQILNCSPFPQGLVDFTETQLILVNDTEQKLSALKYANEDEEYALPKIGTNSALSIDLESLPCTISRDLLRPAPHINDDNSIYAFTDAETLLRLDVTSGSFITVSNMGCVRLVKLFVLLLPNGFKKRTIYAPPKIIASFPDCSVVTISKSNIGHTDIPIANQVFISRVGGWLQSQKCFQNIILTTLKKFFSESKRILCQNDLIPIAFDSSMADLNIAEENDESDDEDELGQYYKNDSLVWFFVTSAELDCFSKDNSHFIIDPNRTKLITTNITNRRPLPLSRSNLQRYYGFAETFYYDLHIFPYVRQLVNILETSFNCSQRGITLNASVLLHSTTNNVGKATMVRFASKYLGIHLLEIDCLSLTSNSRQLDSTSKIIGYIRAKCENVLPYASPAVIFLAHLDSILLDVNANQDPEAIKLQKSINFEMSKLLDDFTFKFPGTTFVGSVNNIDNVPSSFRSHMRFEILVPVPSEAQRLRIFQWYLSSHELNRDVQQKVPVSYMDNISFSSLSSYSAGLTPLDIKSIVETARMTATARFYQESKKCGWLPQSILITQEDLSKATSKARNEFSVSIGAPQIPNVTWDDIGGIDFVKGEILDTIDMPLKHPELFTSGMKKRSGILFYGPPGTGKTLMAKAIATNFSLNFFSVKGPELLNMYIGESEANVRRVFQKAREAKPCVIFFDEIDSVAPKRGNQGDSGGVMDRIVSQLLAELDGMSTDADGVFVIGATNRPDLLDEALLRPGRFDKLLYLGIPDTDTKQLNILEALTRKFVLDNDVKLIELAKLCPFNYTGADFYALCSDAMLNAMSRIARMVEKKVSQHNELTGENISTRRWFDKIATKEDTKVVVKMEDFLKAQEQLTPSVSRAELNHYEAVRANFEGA
The series is described as above. The settings on record: both partners purified.

Series [3] has as its target T3, Pex1/6p-complex (recombinant heterohexameric AAA-complex) (S. cerevisiae, UniProt P24004 1-1043; P33760 1-1030).
T3 construct: Pex1p of yeast, as the chain of m3; Pex6p of yeast, as the chain of m2; Described as a trimer of Pex1/6p dimers (heterohexamer, about 700 kDa); Isolated in 5 mM ATP or 5 mM ADP as said for each assay; also called Pex1p/Pex6p-complex; wild-type Pex1/6p; source: E. coli Tuner (DE3), cells mixed and lysed, co-purified (NiNTA-agarose, GSH-agarose, thrombin release, size exclusion); not shown: His6, …
Described as above. Particulars: both partners purified.

Series [4] has as its target T4, Pex1WB/6p complex (Pex1p E798Q with wild-type Pex6p) (S. cerevisiae, UniProt P24004 1-1043; P33760 1-1030, E798Q).
T4 construct: Pex1p of yeast with the Walker B mutation of the D2 domain; Pex6p of yeast, as the chain of m2; also called Pex1WB^E798Q/6p; not shown: His6, N-terminal, kept; GST, C-terminal, cleaved; copies: 3 + 3
The description is as above. Particulars: both partners purified.

One may read the stoichiometry N as a count of units in the complex or per binding partner.

B1: HisPex1p released from HisPex1pGST by thrombin (natural protein, S. cerevisiae, UniProt P24004 1-1043, looked up)
chain: MTTTKRLKFENLRIQFSNAIVGNFLRLPHSIINVLESTNYAIQEFGIAVHSHNSDIPIVHLGWDGHDSGSSENVVLINPVLATVYDLNQKSPLVDLYIQRYDHTHLATEVYVTPETSDDWEIIDANAMRFQNGEILHQTRIVTPGETLICYLEGIVTKFKIDRVEPSMKSARITDGSLVVVAPKVNKTRLVKAEYGHSNKTILKNGAIQLLKKVILRSTVCKMDFPKDNLFVVYISDGAQLPSQKGYASIVKCSLRQSKKSDSDNKSVGIPSKKIGVFIKCDSQIPENHIALSSHLWDAFFTHPMNGAKIKLEFLQMNQANIISGRNATVNIKYFGKDVPTKSGDQYSKLLGGSLLTNNLILPTEQIIIEIKKGESEQQLCNLNEISNESVQWKVTQMGKEEVKDIIERHLPKHYHVKETGEVSRTSKDEDDFITVNSIKKEMVNYLTSPIIATPAIILDGKQGIGKTRLLKELINEVEKDHHIFVKYADCETLHETSNLDKTQKLIMEWCSFCYWYGPSLIVLDNVEALFGKPQANDGDPSNNGQWDNASKLLNFFINQVTKIFNKDNKRIRVLFSGKQKTQINPLLFDKHFVSETWSLRAPDKHARAKLLEYFFSKNQIMKLNRDLQFSDLSLETEGFSPLDLEIFTEKIFYDLQLERDCDNVVTRELFSKSLSAFTPSALRGVKLTKETNIKWGDIGALANAKDVLLETLEWPTKYEPIFVNCPLRLRSGILLYGYPGCGKTLLASAVAQQCGLNFISVKGPEILNKFIGASEQNIRELFERAQSVKPCILFFDEFDSIAPKRGHDSTGVTDRVVNQLLTQMDGAEGLDGVYILAATSRPDLIDSALLRPGRLDKSVICNIPTESERLDILQAIVNSKDKDTGQKKFALEKNADLKLIAEKTAGFSGADLQGLCYNAYLKSVHRWLSAADQSEVVPGNDNIEYFSINEHGRREENRLRLKTLLQQDVVHETKTSTSAASELTAVVTINDLLEACQETKPSISTSELVKLRGIYDRFQKDRNGEMPNGENSIDIGSRLSLM
notes: Pex1p, type II AAA-ATPase peroxin of yeast; The GST tag held the complex on GSH-agarose during purification and stayed on the column after thrombin cleavage; source: E. coli Tuner (DE3), co-purified with HisPex6p (NiNTA-agarose, GSH-agarose, thrombin release); not shown: His6, N-terminal, kept; GST, C-terminal, cleaved
As to B1, the “stoichiometry N” value in series [1] came to 3.

B2: GST-Pex15p(1-315)His (domain or fragment, S. cerevisiae, UniProt Q08215 1-315, looked up)
chain: MAASEIMNNLPMHSLDSSLRDLLNDDLFIESDESTKSVNDQRSEVFQECVNLFIKRDIKDCLEKMSEVGFIDITVFKSNPMILDLFVSACDIMPSFTKLGLTLQSEILNIFTLDTPQCIETRKIILGDLSKLLVINKFFRCCIKVIQFNLTDHTEQEEKTLELESIMSDFIFVYITKMRTTIDVVGLQELIEIFIFQVKVKLHHKKPSPNMYWALCKTLPKLSPTLKGLYLSKDVSIEDAILNSIDNKIQKDKAKSKGKQRGVKQKIHHFHEPMLHNSSEEQVKVEDAFNQRTSTDSRLQSTGTAPRKKNNDITV
notes: Pex15p, tail-anchored peroxisomal membrane protein of S. cerevisiae (genomic DNA of strain UTL-7A), cytosolic part, residues 1 to 315; also called cytosolic domain of Pex15p; source: E. coli BL21 (DE3), purified (Glutathione Agarose 4B, dialysis); not shown: GST, N-terminal, kept; His6, C-terminal, kept
For B2, the binding result (in series [2]; in the series with HisPex6p; in series [3]; in series [4]) was “binds” in each case.
